According to patent US9850504B2, “Method for the enzymatic production of 3-buten-2-one” (Scientist of Fortune S.A., priority 2013, dated 2017):

Assays:
[1] = molecular target: linalool dehydratase-isomerase from Castellaniella defragrans (formerly Alcaligenes defragrans), SEQ ID NO: 19 (Castellaniella defragrans, UniProt E1XUJ2); assay: 1,3-butadiene production from 3-buten-2-ol (GC/FID); assay type: biochemical; settings: 0-80 mM 3-buten-2-ol, cell lysate with recombinant enzyme, 2 mM DTT, pH 7.5, 37° C, 1-22 hours
Sequence of linalool dehydratase-isomerase from Castellaniella defragrans (formerly Alcaligenes defragrans), SEQ ID NO: 19 (E1XUJ2 27-397): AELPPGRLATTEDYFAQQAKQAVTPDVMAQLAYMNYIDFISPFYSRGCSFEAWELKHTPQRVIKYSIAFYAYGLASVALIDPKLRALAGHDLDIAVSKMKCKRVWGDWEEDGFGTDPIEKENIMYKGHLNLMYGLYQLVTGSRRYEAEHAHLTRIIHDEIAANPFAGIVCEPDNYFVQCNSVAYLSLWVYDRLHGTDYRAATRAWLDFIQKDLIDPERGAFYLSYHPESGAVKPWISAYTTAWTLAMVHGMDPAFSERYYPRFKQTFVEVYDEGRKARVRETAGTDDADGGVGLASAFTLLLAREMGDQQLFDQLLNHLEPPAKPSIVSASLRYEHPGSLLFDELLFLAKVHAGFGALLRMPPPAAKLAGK
Source text: The sequence of linalool dehydratase-isomerase inferred from the genome of Castellaniella defragrans (formerly Alcaligenes defragrans) was generated by oligonucleotide concatenation to fit the codon usage of E. coli. A stretch of 6 histidine codons was inserted after the methionine initiation codon to provide an affinity tag for purification. The gene thus synthesized was cloned in a pET25b(+) expression vector (the vector was constructed by GeneArt AG). Competent E. coli BL21(DE3) cells (Novagen) were transformed with this vector according to the heat shock procedure. As negative control, E. coli BL21(DE3) strain was transformed with empty vector. The transformed cells were grown with shaking (160 rpm) on ZYM-5052 auto-induction medium (Studier F W, Prot. Exp. Pur. 41 (2005), 207-234) for 6 hours at 37° C. and protein expression was continued at 18° C. overnight (approximately 12 hours). The cells were collected by centrifugation at 4° C., 10,000 rpm for 20 min and the pellets were frozen at −80° C.
The pellets from 100 ml of culture cells were thawed on ice and resuspended in 4 ml of 50 mM Tris-HCl pH 7.5. […] Protein concentration was determined using the Bradford method (Biorad). […]
0.25 ml of cell lysate containing recombinant linalool dehydratase-isomerase was added to 0.5 ml of reaction mixture. […] 1,3-butadiene production was analyzed by GC/FID procedure. […]

[2] = molecular target: T1, Secondary alcohol dehydrogenase from Rhodococcus ruber, SEQ ID NO: 12 (Uniprot Q8KLT9) (Rhodococcus ruber, UniProt Q8KLT9); assay: Kinetic parameters of the reduction of 3-buten-2-one to 3-buten-2-ol; assay type: biochemical; settings: 0-40 mM 3-buten-2-one, 40 mM NADPH, pH 7.5, 37° C
T1 sequence (Q8KLT9 1-346): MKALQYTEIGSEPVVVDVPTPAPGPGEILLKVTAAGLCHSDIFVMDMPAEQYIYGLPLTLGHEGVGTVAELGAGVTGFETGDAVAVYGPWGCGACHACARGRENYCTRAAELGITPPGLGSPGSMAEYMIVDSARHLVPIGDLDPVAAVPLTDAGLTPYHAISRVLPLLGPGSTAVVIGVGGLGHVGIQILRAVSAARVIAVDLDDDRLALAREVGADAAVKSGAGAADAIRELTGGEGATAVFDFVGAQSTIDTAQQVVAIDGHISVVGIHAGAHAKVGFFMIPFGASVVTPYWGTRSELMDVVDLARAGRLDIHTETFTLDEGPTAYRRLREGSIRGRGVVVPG
Method: (§1) The assays were incubated for various time periods (0, 20, 40, 60 120 and 240 min) with shaking at 37° C. […] The reaction products were then extracted with an equal volume of ethyl acetate. 150 μl of the upper ethyl acetate phase was transferred into a clean vial for HPLC analysis. Commercial 3-buten-2-ol (Sigma) was used as reference. […] The mobile phase consisted of 98:2 (v/v) H2O/acetonitrile containing 8.4 mM sulfuric acid. Retention time of 3-buten-2-ol and 3-buten-2-one under these conditions was 3.9 and 5.4 min, respectively.
(§2) The studied enzymatic reaction was carried out under the following conditions at 37° C.:
1 mg/ml alcohol dehydrogenase from R. ruber.
(§3) Reaction volume was 200 μl.
(§4) The assays were incubated for 0, 10, 20, 40, 60 and 120 min with shaking at 37° C. The formation of 3-buten-2-ol was quantified according to the protocol described in Example 8.

[3] = molecular target: 3-hydroxypropionyl-CoA dehydratase from Sulfolobus tokodaii, SEQ ID NO: 3 (Uniprot F9VNG3) (Sulfurisphaera tokodaii, UniProt F9VNG3); assay: Kinetic parameters of the dehydration of 4-hydroxy-2-butanone to 3-buten-2-one; assay type: biochemical; settings: 0-300 mM 4-hydroxy-2-butanone, 20 mM MgCl2, pH 7.5, 37° C
Sequence of 3-hydroxypropionyl-CoA dehydratase from Sulfolobus tokodaii, SEQ ID NO: 3 (Uniprot F9VNG3) (F9VNG3 1-257): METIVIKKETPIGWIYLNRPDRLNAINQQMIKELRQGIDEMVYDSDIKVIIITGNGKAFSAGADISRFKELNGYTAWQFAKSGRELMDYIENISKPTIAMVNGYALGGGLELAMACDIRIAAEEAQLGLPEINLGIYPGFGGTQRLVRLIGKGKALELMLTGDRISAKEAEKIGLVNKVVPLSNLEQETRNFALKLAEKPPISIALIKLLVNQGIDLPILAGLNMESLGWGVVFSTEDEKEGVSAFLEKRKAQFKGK
Method: Each assay was started with the addition of a specific enzyme at a final concentration of 4 mg/ml. Control assays were performed in which either no enzyme was added, or no substrate was added. Test tubes were incubated for 23 hours with shaking at 37° C. Reaction products were extracted with an equal volume of ethyl acetate and then analyzed by HPLC. Commercial 3-buten-2-one (Sigma) was used as reference. […] The mobile phase consisted of 98:2 (v/v) H2O/Acetonitrile containing 8.4 mM sulfuric acid. Retention time of 3-buten-2-one under these conditions was 5.4 min.
Kinetic parameters of the reaction were determined for purified recombinant 3-hydroxypropionyl-CoA dehydratase from Sulfolobus tokodaii under the following conditions:
4 mg/ml 3-Hydroxypropionyl-CoA dehydratase S. tokodaii
Test tubes were incubated for 0, 20, 60, 120 and 180 min with shaking at 37° C. The formation of 3-buten-2-one was quantified using commercial 3-buten-2-one according to the procedure described in Example 4.

[4] = substrate: CC(=O)CC(=O)SCCNC(=O)CCNC(=O)[C@H](O)C(C)(C)COP(=O)(O)OP(=O)(O)OC[C@H]1O[C@@H](n2cnc3c(N)ncnc32)[C@H](O)[C@@H]1OP(=O)(O)O; assay: purified protein, by the assay type; settings: other: acetoacetyl-CoA variable (0-32 mM), NADPH 60 mM, pH 7.5, 37° C
[5] = substrate: C=CC(C)=O; assay: Enzyme-catalyzed reduction of 3-buten-2-one to 3-buten-2-ol, HPLC-based; assay type: biochemical, Thermoanaerobium brockii; settings: other: 0-40 mM 3-buten-2-one, 40 mM NADPH, 0.1 mM ZnCl2, pH 7.5, 37° C
Method: as §2
1 mg/ml alcohol dehydrogenase from Th. brockii
as §3, §1

[6] = substrate: C=CC(C)=O; assay: Kinetic parameters of the reduction of 3-buten-2-one to 3-buten-2-ol; assay type: biochemical, Lactobacillus kefiri; settings: other: 0-40 mM 3-buten-2-one, 40 mM NADPH, pH 7.5, 37° C
Method: as §1, §2
1 mg/ml alcohol dehydrogenase from L. kefiri.
as §3, §4

## C=CC(C)O (centres unmarked) [3-buten-2-ol]
[1]
  turnover number: about 10^−4 s^−1 substrate molecule per enzyme active site

## C=CC(C)=O [3-buten-2-one]
[2]
  kcat: at least 0.03 s^−1

## CC(=O)CCO [4-hydroxy-2-butanone]
[3]
  kcat: 0.0075 s⁻¹

B1: Short chain alcohol dehydrogenase-like protein from Hahella chejuensis, SEQ ID NO: 11 (Uniprot Q2SCE0) (Hahella chejuensis KCTC 2396) (protein)
chain: MNYFVTGGTGFIGRFLVPKLLKRGGTVYLLVREASLPKLDELRERWNASDEQVVGVVGDLAQPMLGVSEKDAAMLRGKVGHFFHLAAIYDMQASAESQEQANIEGTRNAVKLADSLKAACFHHVSSIAAAGLYRGIFREDMFEEAEKLDNPYLRTKHESEKVVREECQTPWRVYRPGMVVGHSKTGEIDKIDGPYYFFKLIQKLRSALPQWMPTVGLEGGRINIVPVDFVVDAMDHIAHAEGEDGKCFHLTDPDPYKVGEILNIFAEAGHAPKMAMRIDARMFGFIPPMIRQGIARLPPVQRMKNAVLNDLGIPDEVMSFINYPTRFDNRETERLLKGTAIAVPRLQDYSPAIWDYWERHLDPDLHKDRTLRGAVEGRVCVITGATSGIGLSAARKLAEAGAKVVIAARTLEKLQEVKKELEELGGEVYEYSVDLSDLEDCDRFVANVLKDLGHVDVLVNNAGRSIRRSIQHAFDRFHDFERTMQLNYFGSLRLIMGFAPSMLERRRGHIVNISSIGVLTNAPRFSAYVASKAALDAFSRCAAAEFSDKNVTFTTINMPLVRTPMISPTKIYDSVPTLTPEEAADLVAEAIIHRPKRIATRLGVFAQVLHSMAPKFSEIIMNTGFKMFPDSSAATGGKDGEKPKVSTEQVAFAAIMRGIHW
[4]
  Km: 5 mM
  kcat: 0.07 s⁻¹

B2: Short-chain dehydrogenase/reductase (Fatty alcohol forming acyl-CoA reductase) from Marinobacter aquaeolei VT8, SEQ ID NO: 7 (Uniprot A1U3L3) (Marinobacter … (protein)
chain: MNYFLTGGTGFIGRFLVEKLLARGGTVYVLVREQSQDKLERLRERWGADDKQVKAVIGDLTSKNLGIDAKTLKSLKGNIDHVFHLAAVYDMGADEEAQAATNIEGTRAAVQAAEAMGAKHFHHVSSIAAAGLFKGIFREDMFEEAEKLDHPYLRTKHESEKVVREECKVPFRIYRPGMVIGHSETGEMDKVDGPYYFFKMIQKIRHALPQWVPTIGIEGGRLNIVPVDFVVDALDHIAHLEGEDGNCFHLVDSDPYKVGEILNIFCEAGHAPRMGMRIDSRMFGFIPPFIRQSIKNLPPVKRITGALLDDMGIPPSVMSFINYPTRFDTRELERVLKGTDIEVPRLPSYAPVIWDYWERNLDPDLFKDRTLKGTVEGKVCVVTGATSGIGLATAEKLAEAGAILVIGARTKETLDEVAASLEAKGGNVHAYQCDFSDMDDCDRFVKTVLDNHGHVDVLVNNAGRSIRRSLALSFDRFHDFERTMQLNYFGSVRLIMGFAPAMLERRRGHVVNISSIGVLTNAPRFSAYVSSKSALDAFSRCAAAEWSDRNVTFTTINMPLVKTPMIAPTKIYDSVPTLTPDEAAQMVADAIVYRPKRIATRLGVFAQVLHALAPKMGEIIMNTGYRMFPDSPAAAGSKSGEKPKVSTEQVAFAAIMRGIYW
[4]
  Km: 8 mM
  kcat: 0.1 s⁻¹

B3: Alcohol dehydrogenase from Thermoanaerobacter brockii (Thermoanaerobium brockii), SEQ ID NO: 13 (Uniprot P14941) (Thermoanaerobacter brockii) (protein)
chain: MKGFAMLSIGKVGWIEKEKPAPGPFDAIVRPLAVAPCTSDIHTVFEGAIGERHNMILGHEAVGEVVEVGSEVKDFKPGDRVVVPAITPDWRTSEVQRGYHQHSGGMLAGWKFSNVKDGVFGEFFHVNDADMNLAHLPKEIPLEAAVMIPDMMTTGFHGAELADIELGATVAVLGIGPVGLMAVAGAKLRGAGRIIAVGSRPVCVDAAKYYGATDIVNYKDGPIESQIMNLTEGKGVDAAIIAGGNADIMATAVKIVKPGGTIANVNYFGEGEVLPVPRLEWGCGMAHKTIKGGLCPGGRLRMERLIDLVFYKRVDPSKLVTHVFRGFDNIEKAFMLMKDKPKDLIKPVVILA
[5]
  Km: 100 mM
  kcat: 0.5 s⁻¹

B4: R-specific alcohol dehydrogenase from Lactobacillus kefiri, SEQ ID NO: 17 (Uniprot Q6WVP7) (Lentilactobacillus kefiri) (protein)
chain: MTDRLKGKVAIVTGGTLGIGLAIADKFVEEGAKVVITGRHADVGEKAAKSIGGTDVIRFVQHDASDEAGWTKLFDTTEEAFGPVTTVVNNAGIAVSKSVEDTTTEEWRKLLSVNLDGVFFGTRLGIQRMKNKGLGASIINMSSIEGFVGDPTLGAYNASKGAVRIMSKSAALDCALKDYDVRVNTVHPGYIKTPLVDDLEGAEEMMSQRTKTPMGHIGEPNDIAWICVYLASDESKFATGAEFVVDGGYTAQ
[6]
  Km: 19 mM
  kcat: 4 s⁻¹
